2 substances from publication doi:10.1101/2023.01.18.524603 can be followed below.

Common to all, as to experiment: EMSA
What all share (conditions): EMSA: 25 mM Tris-HCl pH 7.4, 100 mM NaCl, 5 ng DNA in 10 ul, 20 min, room temperature, AFM: 25 mM HEPES-NaOH pH 7.4, 5 mM MgCl2, 50 mM NaCl, 10% glycerol

Data set [1] relates to Rec114(388-428)-Mei4N (Saccharomyces cerevisiae).
In data set [2] the test system is Rec114(388-428) R395A/K396A-Mei4N (Saccharomyces cerevisiae).
Data set [3] concerns Rec114C-Mei4N-ybbR (Saccharomyces cerevisiae).
The target of data set [4] is T1, Rec114C-Mei4N (RM-TDB) (Saccharomyces cerevisiae) (UniProt P32841+P29467).
T1 sequence 1: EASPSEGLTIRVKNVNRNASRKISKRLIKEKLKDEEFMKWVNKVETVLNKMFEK
T1 sequence 2: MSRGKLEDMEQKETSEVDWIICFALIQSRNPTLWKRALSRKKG

The subject of data set [5] is Rec114(388-428) K417A/K424A-Mei4N (Saccharomyces cerevisiae).
Data set [6] has as its system Rec114(386-428)-Mei4N (Saccharomyces cerevisiae).
The subject of data set [7] is Rec114C-Mei4N-ybbR-LD650 (Saccharomyces cerevisiae).
Data set [8] relates to Rec114(388-428) K403A/K407A-Mei4N (Saccharomyces cerevisiae).
For data set [9], the system named is Rec114(388-428) K399A/R400A-Mei4N (Saccharomyces cerevisiae).
Data set [10] concerns Rec114(325-428)-Mei4(1-90) (Saccharomyces cerevisiae).
For data set [11], the system named is Rec114(388-428)-Mei4(13-43) (Saccharomyces cerevisiae).
The test system of data set [12] is Rec114C (Saccharomyces cerevisiae).

For the substance 150-bp linear DNA, the K half in [1] was determined as 110 nM; in data set [2] it was 1000 nM; in data set [3], 90 nM; in data set [4], 90 nM; in data set [5] it was 900 nM; in data set [6] it was 110 nM. The K half stood at 90 nM in data set [7]; 1000 nM in data set [8]; 2000 nM in data set [9]; 90 nM in data set [10]; 100 nM in [11].

For the substance 1000-bp linear DNA, the K half in data set [4] was 80 nM; in [12], 300 nM.
